{"source": "patent US20260217846A1", "about": "(University of Texas, published 2026)"}
{"target": "T1, recombinant human 4-1BB (human, UniProt Q07011 24-186, limits assumed)", "T1 construct": "The ELISA antigen is called only 'recombinant human 4-1BB'; also called CD137; TNFSFR", "experiment": "ELISA titration on recombinant human 4-1BB"}
{"binder": "Clone 138 4-1BB antibody (IgG2b) (antibody, V domains shown, Mouse hybridoma antibody, IgG2b) VH: VQLQESGGGLVKPGGSLKLSCAASGFTFSDYGMHWVRQAPEKGLEWVAYISSGSNSIYYADTVTGRFTISRDNAKNTLFLQMTSLRSEDTAMYYCASNNGYFYFDYWGQGTTLTVSS VL: IVITQSPAILSASPGEKVTMTCRASSSVSYMHWYQQKPGSSPKPWIYATSNLASGVPARFSGSGSGTSYSLTVSRVEAEDAATYYCQQWSSDPFTFGSGTKLEIK", "binding result": "binds"}
{"binder": "Clone 54 4-1BB antibody (IgG2a) (antibody, V domains shown, Mouse hybridoma antibody, IgG2a; also called Curranlumab; hybridoma clone 271-54 41-BB) VH: EFQLQQSGPELVKPGASVKISCKASGYSFTDYNMNWVKQSNGKSLEWIGVINPNYGTTSYNQKFKGKATFTVDQSSSTAYMQLNSLTSEDSAVYYCARSPVEDYFDYWGQGTTLTVSS VL: ENVLTQSPAIMSASPGEKVTMTCRARSSVSSSYLHWYQQKSGASPKLWIYSTSNLASGVPARFSGSGSGTSYSLTISSVEAEDAATYYCQQYSGYPLITFGAGTKLELKR", "binding result": "binds"}
{"binder": "Clone 49A 4-1BB antibody (IgG1) (antibody, V domains shown, Mouse hybridoma antibody, IgG1) VH: VKLQQSGPELVKPGASVKISCKASGYTFTDYYMNWVKESHGKSLEWIGDINPNNGGSTYYNQKFKGKATLTVEKSSSTAFMELRSLTSEDSAVYYCARSLYGSTYYFDYWGQGTPLTVSS VL: DIVLTQSPASLAVSLGQRATISCKASQSVDYDGDSYMNWYQQKPGQPPKLLIYAASNLESGIPARFSGSGSGTDFTLNIHPVEEEDAGTYYCQQSNDDPWTFGGGTKLEIK", "binding result": "binds"}
